From publication PMC4063181 (Journal of the American Chemical Society, 2014)
Substitutions are numbered along the chain they refer to. Names and notes keep the numbering of the source.

B1: EmrE S107C mutant devoid of wild-type Cys residues (C39S, C41S, C95S, S107C) (natural protein)
chain: MNPYIYLGGAILAEVIGTTLMKFSEGFTRLWPSVGTIISYSASFWLLAQTLAYIPTGIAYAIWSGVGIVLISLLSWGFFGQRLDLPAIIGMMLISAGVLIINLLSRCTPH
B2: EmrE (wild type) (natural protein)
chain: B1 chain with S39C, S41C, S95C, C107S

Legend:
[1] = target: the molecule itself; assay: cross-linking
[2] = target: the molecule itself; assay: solution NMR

Protein | stoichiometry N [1] | binding result [2]
B1 | 2 | –
B2 | – | binds
